Measurements from the Immune Epitope Database (IEDB).

Experiments:
HLA-B*48:01 = test: IEDB peptide-MHC binding, purified MHC/direct/fluorescence; filed as Kd, often an IC50 or EC50 that approximates it; ≥ and ≤ were set here for values at or beyond the usual limits of such assays
HLA-A*11:01 [1] = test: as above
HLA-B*40:01 = test: as above
HLA-B*15:17 = test: as above
HLA-B*15:01 = test: as above
HLA-B*57:01 = test: as above
HLA-B*58:01 [2] = test: as above
HLA-B*08:03 = test: as above
HLA-A*02:01 [3] = test: as above
HLA-A*01:01 [4] = test: as above
HLA-A*69:01 = test: as above; conditions: source organism: Mycobacterium tuberculosis
HLA-A*31:01 [5] = test: as above
HLA-B*18:01 [6] = test: as above
HLA-B*27:05 = test: as above
HLA-B*08:02 = test: as above
HLA-B*08:01 [7] = test: as above
HLA-B*46:01 = test: as above
HLA-A*68:02 [8] = test: IEDB peptide-MHC binding, purified MHC/competitive/fluorescence; filed as Kd, often an IC50 or EC50 that approximates it; ≥ and ≤ were set here for values at or beyond the usual limits of such assays; conditions: source organism: Mycobacterium tuberculosis variant bovis BCG str. Pasteur 1173P2
HLA-A*26:02 = test: as above; conditions: source organism: Mycobacterium tuberculosis variant bovis BCG str. Pasteur 1173P2
HLA-A*26:01 [9] = test: as above; conditions: source organism: Mycobacterium tuberculosis variant bovis BCG str. Pasteur 1173P2
HLA-A*26:03 [10] = test: as above; conditions: source organism: Mycobacterium tuberculosis variant bovis BCG str. Pasteur 1173P2
HLA-A*02:06 = test: as above; conditions: source organism: Mycobacterium tuberculosis variant bovis BCG str. Pasteur 1173P2
HLA-B*07:02 [11] = test: as above; conditions: source organism: Mycobacterium tuberculosis variant bovis BCG str. Pasteur 1173P2
HLA-A*68:02 [12] = test: IEDB peptide-MHC binding, purified MHC/direct/fluorescence; filed as Kd, often an IC50 or EC50 that approximates it; ≥ and ≤ were set here for values at or beyond the usual limits of such assays; conditions: source organism: Yersinia pestis
HLA-A*03:01 [13] = test: as above; conditions: source organism: Yersinia pestis
HLA-A*26:01 [14] = test: as above; conditions: source organism: Yersinia enterocolitica subsp. enterocolitica 8081
HLA-A*26:03 [15] = test: as above; conditions: source organism: Yersinia enterocolitica subsp. enterocolitica 8081
HLA-B*07:02 [16] = test: as above; conditions: source organism: Yersinia pestis
HLA-A*68:02 [17] = test: IEDB peptide-MHC binding, purified MHC/competitive/fluorescence; ≥ and ≤ were set here for values at or beyond the usual limits of such assays
HLA-A*11:01 [18] = test: as above
HLA-A*03:01 [19] = test: as above
HLA-B*35:01 = test: as above
HLA-B*40:02 = test: as above
HLA-B*44:03 = test: as above
HLA-B*58:01 [20] = test: as above
HLA-A*02:01 [21] = test: as above
HLA-A*01:01 [22] = test: as above
HLA-A*31:01 [23] = test: as above
HLA-B*18:01 [24] = test: as above
HLA-A*29:02 = test: as above
HLA-B*37:01 = test: as above
HLA-B*53:01 = test: as above
HLA-B*08:01 [25] = test: as above
HLA-A*24:02 = test: as above
HLA-B*51:01 = test: as above
HLA-A*25:01 = test: as above
HLA-B*07:02 [26] = test: as above
HLA-B*14:02 = test: as above
HLA-C*14:02 = test: IEDB peptide-MHC binding, purified MHC/direct/fluorescence; filed as Kd, often an IC50 or EC50 that approximates it; ≥ and ≤ were set here for values at or beyond the usual limits of such assays; conditions: source organism: Homo sapiens
[27] = source organism: Mycobacterium tuberculosis
[28] = source organism: Mycobacterium tuberculosis str. Haarlem
[29] = source organism: Yersinia pestis
[30] = source organism: Yersinia enterocolitica subsp. enterocolitica 8081
[31] = source organism: Tarsius lariang

Question: What does the source list for AVFDSFVER?
Answer: Kd (HLA-B*48:01; [27]): ≥ 20 µM; Kd (HLA-A*11:01 [1]; [27]): 0.009 µM; Kd (HLA-B*40:01; [27]): ≥ 20 µM; Kd (HLA-B*15:17; [27]): ≥ 20 µM; Kd (HLA-B*15:01; [27]): ≥ 20 µM; Kd (HLA-B*57:01; [27]): ≥ 20 µM; Kd (HLA-B*58:01 [2]; [27]): ≥ 20 µM; Kd (HLA-B*08:03; [28]): ≥ 20 µM; Kd (HLA-A*02:01 [3]; [27]): ≥ 20 µM; Kd (HLA-A*01:01 [4]; [27]): ≥ 20 µM; Kd (HLA-A*69:01): ≥ 20 µM; Kd (HLA-A*31:01 [5]; [27]): 0.004 µM; Kd (HLA-B*18:01 [6]; [27]): ≥ 20 µM; Kd (HLA-B*27:05; [27]): ≥ 20 µM; Kd (HLA-B*08:02; [28]): ≥ 20 µM; Kd (HLA-B*08:01 [7]; [28]): ≥ 20 µM; Kd (HLA-B*46:01; [27]): ≥ 20 µM; Kd (HLA-A*68:02 [8]): ≥ 20 µM; Kd (HLA-A*26:02): ≥ 20 µM; Kd (HLA-A*26:01 [9]): ≥ 20 µM; Kd (HLA-A*26:03 [10]): ≥ 20 µM; Kd (HLA-A*02:06): 0.0023 µM; Kd (HLA-B*07:02 [11]): ≥ 20 µM

Question: SDDQLRLLK was tested. Which Kd (HLA-A*68:02 [12]) did it give?
Answer: ≥ 20 µM

Question: And the Kd (HLA-B*48:01; [29])?
Answer: ≥ 20 µM

Question: And the Kd (HLA-A*11:01 [1]; [29])?
Answer: 0.407 µM

Question: What about the Kd (HLA-B*40:01; [29]) of the same sequence?
Answer: ≥ 20 µM

Question: What about the Kd (HLA-A*03:01 [13]) of the same sequence?
Answer: ≥ 20 µM

Question: What about the Kd (HLA-B*15:17; [29]) of the same sequence?
Answer: ≥ 20 µM

Question: And the Kd (HLA-B*15:01; [29])?
Answer: ≥ 20 µM

Question: And the Kd (HLA-B*57:01; [29])?
Answer: ≥ 20 µM

Question: What about the Kd (HLA-B*58:01 [2]; [29]) of the same sequence?
Answer: ≥ 20 µM

Question: What about the Kd (HLA-B*08:03; [30]) of the same sequence?
Answer: ≥ 20 µM

Question: And the Kd (HLA-A*02:01 [3]; [29])?
Answer: ≥ 20 µM

Question: What about the Kd (HLA-A*01:01 [4]; [29]) of the same sequence?
Answer: ≥ 20 µM

Question: What about the Kd (HLA-A*31:01 [5]; [29]) of the same sequence?
Answer: ≥ 20 µM

Question: What about the Kd (HLA-B*18:01 [6]; [29]) of the same sequence?
Answer: ≥ 20 µM

Question: And the Kd (HLA-B*27:05; [29])?
Answer: ≥ 20 µM

Question: What about the Kd (HLA-A*26:01 [14]) of the same sequence?
Answer: ≥ 20 µM

Question: What about the Kd (HLA-B*08:02; [30]) of the same sequence?
Answer: ≥ 20 µM

Question: And the Kd (HLA-A*26:03 [15])?
Answer: ≥ 20 µM

Question: What about the Kd (HLA-B*08:01 [7]; [30]) of the same sequence?
Answer: ≥ 20 µM

Question: What about the Kd (HLA-B*46:01; [29]) of the same sequence?
Answer: ≥ 20 µM

Question: What about the Kd (HLA-B*07:02 [16]) of the same sequence?
Answer: ≥ 20 µM

Question: With SYMMDDLELI as the sequence, how does the IC50 (HLA-A*68:02 [17]; source organism: Homo sapiens) read?
Answer: 0.777 µM

Question: What about the IC50 (HLA-A*11:01 [18]; source organism: Homo sapiens) of the same sequence?
Answer: ≥ 20 µM

Question: What about the IC50 (HLA-A*03:01 [19]; source organism: Homo sapiens) of the same sequence?
Answer: ≥ 20 µM

Question: What about the IC50 (HLA-B*35:01; source organism: Homo sapiens) of the same sequence?
Answer: ≥ 20 µM

Question: What about the IC50 (HLA-B*40:02; source organism: Homo sapiens) of the same sequence?
Answer: ≥ 20 µM

Question: What about the IC50 (HLA-B*44:03; source organism: Homo sapiens) of the same sequence?
Answer: ≥ 20 µM

Question: And the IC50 (HLA-B*58:01 [20]; source organism: Homo sapiens)?
Answer: ≥ 20 µM

Question: What about the IC50 (HLA-A*02:01 [21]; source organism: Homo sapiens) of the same sequence?
Answer: 0.131 µM

Question: And the IC50 (HLA-A*01:01 [22]; source organism: Homo sapiens)?
Answer: ≥ 20 µM

Question: And the IC50 (HLA-A*31:01 [23]; source organism: Homo sapiens)?
Answer: ≥ 20 µM

Question: What about the IC50 (HLA-B*18:01 [24]; source organism: Homo sapiens) of the same sequence?
Answer: ≥ 20 µM

Question: And the IC50 (HLA-A*29:02; source organism: Homo sapiens)?
Answer: 0.824 µM

Question: And the IC50 (HLA-B*37:01; source organism: Homo sapiens)?
Answer: ≥ 20 µM

Question: And the IC50 (HLA-B*53:01; source organism: Homo sapiens)?
Answer: ≥ 20 µM

Question: And the IC50 (HLA-B*08:01 [25]; source organism: Homo sapiens)?
Answer: ≥ 20 µM

Question: What about the IC50 (HLA-A*24:02; source organism: Homo sapiens) of the same sequence?
Answer: 0.0113 µM

Question: What about the IC50 (HLA-B*51:01; source organism: Homo sapiens) of the same sequence?
Answer: ≥ 20 µM

Question: And the IC50 (HLA-A*25:01; source organism: Homo sapiens)?
Answer: ≥ 20 µM

Question: And the IC50 (HLA-B*07:02 [26]; source organism: Homo sapiens)?
Answer: ≥ 20 µM

Question: What about the IC50 (HLA-B*14:02; source organism: Homo sapiens) of the same sequence?
Answer: ≥ 20 µM

Question: And the Kd (HLA-C*14:02)?
Answer: 0.575 µM

Question: Which IC50 (HLA-A*68:02 [17]; [31]) does the source give for TEAEKWPFF here?
Answer: ≥ 20 µM

Question: What about the IC50 (HLA-A*11:01 [18]; [31]) of the same sequence?
Answer: ≥ 20 µM

Question: What about the IC50 (HLA-A*03:01 [19]; [31]) of the same sequence?
Answer: ≥ 20 µM

Question: What about the IC50 (HLA-B*35:01; [31]) of the same sequence?
Answer: ≥ 20 µM

Question: And the IC50 (HLA-B*40:02; [31])?
Answer: 0.0405 µM

Question: And the IC50 (HLA-B*44:03; [31])?
Answer: ≥ 20 µM

Question: And the IC50 (HLA-B*58:01 [20]; [31])?
Answer: ≥ 20 µM

Question: And the IC50 (HLA-A*02:01 [21]; [31])?
Answer: ≥ 20 µM

Question: What about the IC50 (HLA-A*01:01 [22]; [31]) of the same sequence?
Answer: ≥ 20 µM

Question: What about the IC50 (HLA-A*31:01 [23]; [31]) of the same sequence?
Answer: ≥ 20 µM

Question: What about the IC50 (HLA-B*18:01 [24]; [31]) of the same sequence?
Answer: 0.0432 µM

Question: And the IC50 (HLA-A*29:02; [31])?
Answer: ≥ 20 µM

Question: And the IC50 (HLA-B*37:01; [31])?
Answer: 0.394 µM

Question: What about the IC50 (HLA-B*53:01; [31]) of the same sequence?
Answer: ≥ 20 µM

Question: What about the IC50 (HLA-B*08:01 [25]; [31]) of the same sequence?
Answer: ≥ 20 µM

Question: What about the IC50 (HLA-A*24:02; [31]) of the same sequence?
Answer: 0.57 µM

Question: What about the IC50 (HLA-B*51:01; [31]) of the same sequence?
Answer: ≥ 20 µM

Question: What about the IC50 (HLA-A*25:01; [31]) of the same sequence?
Answer: ≥ 20 µM

Question: What about the IC50 (HLA-B*07:02 [26]; [31]) of the same sequence?
Answer: ≥ 20 µM

Question: What about the IC50 (HLA-B*14:02; [31]) of the same sequence?
Answer: ≥ 20 µM
